# Experimental data reported in the supplement of paper PMC9112550, “Optimization of the antimicrobial peptide Bac7 by deep mutational scanning” (BMC Biology, 2022).
# Test system: Escherichia coli TOP10
# Assay: shrunken log2 fold change of peptide-encoding DNA abundance (4.5 h post-induction vs induction); higher = less antimicrobial activity (less host growth inhibition)
# Settings: time post-induction: 4.5 h; library: site-saturation at positions 5, 18, 19, 20
# 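Also: peptides expressed intracellularly from a pBAD plasmid library in pooled LB shake-flask culture, induced with 0.3% L-arabinose, DNA abundance read by NGS, three biological replicates, DESeq2 with apeglm shrinkage.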
sequence,measurement,value
RRIRQRPPRLPRPRPRPLPCPRP,shrunken log2 fold change,-0.00831
RRIRNRPPRLPRPRPRPLFKPRP,shrunken log2 fold change,-1.08
RRIRLRPPRLPRPRPRPHMDPRP,shrunken log2 fold change,-0.549
RRIRNRPPRLPRPRPRPRMCPRP,shrunken log2 fold change,0.138
RRIRQRPPRLPRPRPRPDDYPRP,shrunken log2 fold change,0.0372
RRIRHRPPRLPRPRPRPPILPRP,shrunken log2 fold change,-0.0767
RRIRCRPPRLPRPRPRPTFDPRP,shrunken log2 fold change,-0.164
RRIRPRPPRLPRPRPRPVTDPRP,shrunken log2 fold change,-0.393
RRIRFRPPRLPRPRPRPGYKPRP,shrunken log2 fold change,-0.438
RRIRVRPPRLPRPRPRPFSAPRP,shrunken log2 fold change,-0.132
RRIRNRPPRLPRPRPRPYMMPRP,shrunken log2 fold change,-0.118
RRIRLRPPRLPRPRPRPHSEPRP,shrunken log2 fold change,-0.431
RRIRPRPPRLPRPRPRPDVQPRP,shrunken log2 fold change,0.234
RRIRSRPPRLPRPRPRPHFHPRP,shrunken log2 fold change,-0.428
RRIRQRPPRLPRPRPRPKCSPRP,shrunken log2 fold change,-0.0276
RRIRCRPPRLPRPRPRPKIWPRP,shrunken log2 fold change,0.121
RRIRLRPPRLPRPRPRPAWDPRP,shrunken log2 fold change,0.0108
RRIRIRPPRLPRPRPRPDTRPRP,shrunken log2 fold change,-0.293
RRIRRRPPRLPRPRPRPWRHPRP,shrunken log2 fold change,0.0972
RRIRMRPPRLPRPRPRPFVPPRP,shrunken log2 fold change,-0.375
RRIRKRPPRLPRPRPRPWVLPRP,shrunken log2 fold change,0.0941
RRIRERPPRLPRPRPRPKARPRP,shrunken log2 fold change,-0.276
RRIRRRPPRLPRPRPRPLTTPRP,shrunken log2 fold change,0.311
RRIRDRPPRLPRPRPRPQTMPRP,shrunken log2 fold change,-0.067
RRIRDRPPRLPRPRPRPRMCPRP,shrunken log2 fold change,0.0171
RRIRMRPPRLPRPRPRPMCCPRP,shrunken log2 fold change,0.207
RRIRWRPPRLPRPRPRPLARPRP,shrunken log2 fold change,0.432
RRIRPRPPRLPRPRPRPAWHPRP,shrunken log2 fold change,0.362
RRIRARPPRLPRPRPRPMYRPRP,shrunken log2 fold change,-0.0452
RRIRVRPPRLPRPRPRPHAPPRP,shrunken log2 fold change,0.26
RRIRKRPPRLPRPRPRPEFIPRP,shrunken log2 fold change,0.146
RRIRFRPPRLPRPRPRPQRHPRP,shrunken log2 fold change,-0.0437
RRIRERPPRLPRPRPRPCSYPRP,shrunken log2 fold change,-0.0141
RRIRYRPPRLPRPRPRPPGEPRP,shrunken log2 fold change,0.0198
RRIRPRPPRLPRPRPRPSYMPRP,shrunken log2 fold change,-0.962
RRIRGRPPRLPRPRPRPVIWPRP,shrunken log2 fold change,0.886
RRIRTRPPRLPRPRPRPEMFPRP,shrunken log2 fold change,-0.0156
RRIRVRPPRLPRPRPRPTKMPRP,shrunken log2 fold change,0.0488
RRIRKRPPRLPRPRPRPSSRPRP,shrunken log2 fold change,-0.038
RRIRVRPPRLPRPRPRPWKVPRP,shrunken log2 fold change,-0.0954
RRIRNRPPRLPRPRPRPPYCPRP,shrunken log2 fold change,0.0775
RRIRMRPPRLPRPRPRPCEHPRP,shrunken log2 fold change,0.249
RRIRGRPPRLPRPRPRPYYVPRP,shrunken log2 fold change,-0.0871
RRIRMRPPRLPRPRPRPRCCPRP,shrunken log2 fold change,0.373
RRIRYRPPRLPRPRPRPNELPRP,shrunken log2 fold change,-0.717
RRIRNRPPRLPRPRPRPAWWPRP,shrunken log2 fold change,0.293
RRIRGRPPRLPRPRPRPVLGPRP,shrunken log2 fold change,0.343
RRIRTRPPRLPRPRPRPRHDPRP,shrunken log2 fold change,0.0144
RRIRMRPPRLPRPRPRPLNGPRP,shrunken log2 fold change,-0.00843
RRIRYRPPRLPRPRPRPQYLPRP,shrunken log2 fold change,-3.15
RRIRWRPPRLPRPRPRPNHQPRP,shrunken log2 fold change,-0.342
RRIRGRPPRLPRPRPRPFDMPRP,shrunken log2 fold change,0.255
RRIRDRPPRLPRPRPRPVEHPRP,shrunken log2 fold change,0.115
RRIRWRPPRLPRPRPRPINLPRP,shrunken log2 fold change,-0.748
RRIRDRPPRLPRPRPRPIMDPRP,shrunken log2 fold change,0.308
RRIRWRPPRLPRPRPRPSCSPRP,shrunken log2 fold change,-0.349
RRIRRRPPRLPRPRPRPYKHPRP,shrunken log2 fold change,-0.89
RRIRDRPPRLPRPRPRPFFNPRP,shrunken log2 fold change,-0.156
RRIRNRPPRLPRPRPRPALAPRP,shrunken log2 fold change,0.1
RRIRFRPPRLPRPRPRPEPCPRP,shrunken log2 fold change,-0.111
RRIRKRPPRLPRPRPRPRLCPRP,shrunken log2 fold change,0.308
RRIRWRPPRLPRPRPRPHLYPRP,shrunken log2 fold change,-0.125
RRIRLRPPRLPRPRPRPIVRPRP,shrunken log2 fold change,-0.151
RRIRPRPPRLPRPRPRPRDKPRP,shrunken log2 fold change,0.144
RRIRRRPPRLPRPRPRPFWLPRP,shrunken log2 fold change,0.231
RRIRTRPPRLPRPRPRPPYQPRP,shrunken log2 fold change,0.0802
RRIRVRPPRLPRPRPRPTRRPRP,shrunken log2 fold change,0.529
RRIRNRPPRLPRPRPRPCYEPRP,shrunken log2 fold change,-0.0244
RRIRMRPPRLPRPRPRPKMDPRP,shrunken log2 fold change,1.2
RRIRPRPPRLPRPRPRPAGCPRP,shrunken log2 fold change,0.386
RRIRYRPPRLPRPRPRPHCWPRP,shrunken log2 fold change,-0.702
RRIRARPPRLPRPRPRPKDKPRP,shrunken log2 fold change,0.0564
RRIRLRPPRLPRPRPRPYWEPRP,shrunken log2 fold change,-0.0613
RRIRIRPPRLPRPRPRPFYAPRP,shrunken log2 fold change,-0.251
RRIRVRPPRLPRPRPRPWMWPRP,shrunken log2 fold change,0.091
RRIRVRPPRLPRPRPRPLRWPRP,shrunken log2 fold change,0.63
RRIRSRPPRLPRPRPRPQMMPRP,shrunken log2 fold change,-0.143
RRIRQRPPRLPRPRPRPQCCPRP,shrunken log2 fold change,-0.0133
RRIRTRPPRLPRPRPRPKDHPRP,shrunken log2 fold change,-0.156
RRIRHRPPRLPRPRPRPGTMPRP,shrunken log2 fold change,-0.0455
RRIRPRPPRLPRPRPRPWCIPRP,shrunken log2 fold change,-0.519
RRIRKRPPRLPRPRPRPRPIPRP,shrunken log2 fold change,0.824
RRIRCRPPRLPRPRPRPWPGPRP,shrunken log2 fold change,0.123
RRIRRRPPRLPRPRPRPLNHPRP,shrunken log2 fold change,-0.0852
RRIRGRPPRLPRPRPRPYFWPRP,shrunken log2 fold change,0.0833
RRIRLRPPRLPRPRPRPYGRPRP,shrunken log2 fold change,-0.2
RRIRCRPPRLPRPRPRPNYPPRP,shrunken log2 fold change,-0.427
RRIRNRPPRLPRPRPRPAYDPRP,shrunken log2 fold change,-0.119
RRIRKRPPRLPRPRPRPMKIPRP,shrunken log2 fold change,0.291
RRIRCRPPRLPRPRPRPGEYPRP,shrunken log2 fold change,0.0239
RRIRYRPPRLPRPRPRPSSDPRP,shrunken log2 fold change,-0.218
RRIRLRPPRLPRPRPRPYPEPRP,shrunken log2 fold change,-0.201
RRIRNRPPRLPRPRPRPINFPRP,shrunken log2 fold change,-0.27
RRIRHRPPRLPRPRPRPKKLPRP,shrunken log2 fold change,-0.104
RRIRERPPRLPRPRPRPAGAPRP,shrunken log2 fold change,0.464
RRIRWRPPRLPRPRPRPYWNPRP,shrunken log2 fold change,-0.645
RRIRERPPRLPRPRPRPNKLPRP,shrunken log2 fold change,-0.596
RRIRARPPRLPRPRPRPLKRPRP,shrunken log2 fold change,0.37
RRIRARPPRLPRPRPRPTAYPRP,shrunken log2 fold change,0.223
RRIRPRPPRLPRPRPRPKARPRP,shrunken log2 fold change,0.691
RRIRFRPPRLPRPRPRPKYRPRP,shrunken log2 fold change,0.225
RRIRSRPPRLPRPRPRPACYPRP,shrunken log2 fold change,-0.0386
RRIRYRPPRLPRPRPRPKSDPRP,shrunken log2 fold change,-0.299
RRIRFRPPRLPRPRPRPDACPRP,shrunken log2 fold change,0.0499
RRIRLRPPRLPRPRPRPMCIPRP,shrunken log2 fold change,-0.125
RRIRRRPPRLPRPRPRPHGKPRP,shrunken log2 fold change,0.0359
RRIRCRPPRLPRPRPRPYYHPRP,shrunken log2 fold change,-1.28
RRIRGRPPRLPRPRPRPVMVPRP,shrunken log2 fold change,0.128
RRIRERPPRLPRPRPRPDSIPRP,shrunken log2 fold change,-0.042
RRIRMRPPRLPRPRPRPKIVPRP,shrunken log2 fold change,0.0132
RRIRLRPPRLPRPRPRPPEDPRP,shrunken log2 fold change,0.0763
RRIRERPPRLPRPRPRPLPIPRP,shrunken log2 fold change,-0.0301
RRIRYRPPRLPRPRPRPVNLPRP,shrunken log2 fold change,-0.0688
RRIRLRPPRLPRPRPRPFCEPRP,shrunken log2 fold change,-0.157
RRIRERPPRLPRPRPRPKHDPRP,shrunken log2 fold change,-0.441
RRIRARPPRLPRPRPRPQTVPRP,shrunken log2 fold change,0.129
RRIRKRPPRLPRPRPRPRFVPRP,shrunken log2 fold change,0.0638
RRIRMRPPRLPRPRPRPAQHPRP,shrunken log2 fold change,0.0457
RRIRERPPRLPRPRPRPCNRPRP,shrunken log2 fold change,-0.0134
RRIRGRPPRLPRPRPRPSQPPRP,shrunken log2 fold change,0.138
RRIRWRPPRLPRPRPRPIKKPRP,shrunken log2 fold change,-0.0218
RRIRTRPPRLPRPRPRPADYPRP,shrunken log2 fold change,-0.226
RRIRFRPPRLPRPRPRPSPEPRP,shrunken log2 fold change,0.24
RRIRKRPPRLPRPRPRPPTWPRP,shrunken log2 fold change,0.702
RRIRRRPPRLPRPRPRPTPMPRP,shrunken log2 fold change,1.08
